Experimental data from paper PMC7595633 (PLoS Neglected Tropical Diseases, 2020).
“And” between values parts separate entries of the source, which are not always exact repeats. Equal values may be shown once.

Key:
[1] = target: the molecule itself; assay: AUC; sedimentation equilibrium; tetramer to dimers; 0.5, 0.75 and 1.0 mg/mL; 8,000, 10,000 and 12,000 rpm, 4°C; global fit in SEDPHAT
[2] = target: the molecule itself; assay: native gel or EMSA; PhastGel gradient 8-25%, room temperature; 1 mg/mL (methods), 2 mg/mL (legend of Fig 1D); Coomassie stained

B1: Trypanosoma brucei selenophosphate synthetase (TbSEPHS2), recombinant full-length (enzyme, UniProt Q38A34 1-393, looked up)
chain: MSEKEGKVIPETNGMKRPRFDPVKLGLPEEFTLTDYTRLKGCSCKVPQPELLALLQSVSTTPGRRDVGMDCSIVKLQHKDETGKPLYMVSTTDFFFPSVEDPYLQGQIGAANVLSDLYSTGIDRCDTVLMLLAASTDMDKTEREVCTQEMMKGFVDHVRLAGSDVTGGQTVMNPWPLIGGIATSVVAESQMIRPTGLQPGDILVLTKPLGCQIAVNLKQWLRRPSPIFEEQIQGKMDSEEIEELYNAAADGMKRLNRMAAALMHSHGAHGATDVTGFGILGHAKNLGSAQKADVCLVLDSLPMYRGAVKASKLMGDKYRLFEGYAAETSGGLLVAFGTREEAEGYIRELYETDGEPAWVVGRVVRREGSAPYALLQKDYKIIEVGAKVNDKII
notes: selenophosphate synthetase SEPHS2 of Trypanosoma brucei, Tb927.10.9410, 393 residues (from the limits of the truncated constructs); also called SPS2; TbSPSH2
B1 was tested, and the Kd [1] was 161 ± 10 µM and the “stoichiometry N” value [2] was 2 and 4.
